Results from patent US7364741B1, “Peptides of human Papilloma virus for use in human T cell response inducing compositions” (priority 1992, dated 2008).
Read-outs that look alike come from different tables or passages of the source.

Key:
HLA-A2.1 = biological target: T1, HLA-A2.1 (Homo sapiens, UniProt P04439, D140Y/D185E/D98H/E176V/E277Q/G131W/G231S/I119V/I121R/I166T/I218V/L300P/L318F/N151K/N90K/P208A/P217A/Q86G/Q94H/R138H/R169H/T345S); type: cell-based
T1 construct: endogenous in cells; host or cells: 174CEM.T2
Experimental: Of all peptides a dilution of 1 mg/ml in 0.9% NaCl was made.
174CEM.T2 cells were cultured in Iscovel's modified Dulbecco's medium (Biochrom KG Seromed Berlin, Germany: F0465) supplemented with 100 IU/ml penicillin (Biocades Pharma, Leiderdorp, The Netherlands), 100 μg/ml kanamycin (Sigma St. Louis, USA:K-0254), 2 mM glutamine (ICN Biomedicals Inc. Costa Mesa, Calif., USA:15-801-55) and 10% fetal calf serum (FCS, Hyclone Laboratories Inc. Logan, Utah, USA:A-1115-L). Cells were cultured at a density of 2.5×10^5/ml during 3 days at 37° C., 5% CO2 in humified air.
174CEM.T2 cells were washed twice in culture medium without FCS and put in serum-free culture medium to a density of 2×10^6 cells/ml. Of this suspension 40 μl was put into a V bottomed 96 well plate (Greiner GmbH, Frickenhausen, Germany: 651101) together with 10 μl of the individual peptide dilutions (of 1 mg/ml). The end concentration is 200 μg/ml peptide with 8×10^4 174CEM.T2 cells. This solution was gently agitated for 3 minutes after which an incubation time of 16 hours at 37° C., 5% CO2 in humified air took place. Then cells were washed once with 100 μl 0.9% NaCl, 0.5% bovine serum albumin (Sigma St. Louis, USA: A-7409), 0.02% NaN3 (Merck Darmstadt, Germany:822335). After a centrifuge round of 1200 rpm the pellet was resuspended in 50 μl of saturating amounts of HLA-A2.1 specific mouse monoclonal antibody BB7.2 for 30 minutes at 4° C. Then cells were washed twice and incubated for 30 minutes with F(ab)2 fragments of goat anti-mouse IgG that had been conjugated with […] (Tago Inc Burlingame, Calif., USA: 4350) in a dilution of 1:40 and a total volume of 25 μl.
After the last incubation, cells were washed twice and fluorescence was measured at 488 nanometer on a FACScan flow-cytometer (Becton Dickinson, Franklin Lakes, N.J., USA).
The 174CEM.T2 cell line expresses “empty” and unstable HLA-A2.1 molecules that can be stabilized when a peptide is binding to the peptide presenting groove of these molecules. […] This leads to an increase in cell surface expression of the HLA-A2.1 molecule.
With background fluorescence level (without adding peptides) set on a Fluorescence Index level of 0, binding of a peptide was regarded positive when the level of fluorescence was ≧0.5.

HLA-A11.2 = assay: Immunochemical peptide-MHC binding assay, purified HLA-A11.2, radiolabeled probe […]; set-up: species or system human; settings: for binding ratio to standard: IC50 of standard divided by IC50 of tested peptide, cysteines synthesized as alanine
Source text: (§1) The method utilizes purified class I molecules and radiolabeled synthetic probes based on consensus peptides. Competitor peptides tested for their binding to the class I molecules compete for this binding with the radiolabeled consensus peptides. The HLA-A1, A2.1, A3.2, A11.2, and A24 molecules were isolated from the following cell lines, respectively: the EBV (Eppstein Barr Virus) transformed cell line Steinlin, the EBV transformed cell line JY, the EBV transformed cell line GM3107, the cell line BVR and the EBV transformed cell line KT3. After large scale culture, cells were lysed in NP40 (Fluka Biochemika, Buchs, Switzerland) and the lysate was passed over two pre-columns of inactivated sepharose CL 4B and Prot A Sepharose. Class I molecules were then purified from the cell lysate by affinity chromatography using Prot A Sepharose beads conjugated with B2.23.2 (anti-HLA-B and HLA-C) and anti-human HLA. The lysate was first depleted of B and C molecules by repeated passage over the B2.23.2 column.
(§2) After two days at 23° C. the percent of MHC-bound radioactivity was measured by size exclusion chromatography on a TSK2000 gel filtration as described by Sette et al. (1992).
(§3) Probe peptides were iodinated by using the Chloramine T method described by Buus et al. (1987). The sequences of the probe peptides used for the aforementioned HLA molecules were […] (SEQ ID NO:76) for A1, […] (SEQ ID NO:77) for A2.1, […] (SEQ ID NO:78) for A3.2, […] (SEQ ID NO:79) for A11.2, and […] (SEQ ID NO:80) for A24.
(§4) Each competitor peptide was tested in two to four completely independent experiments. Since cysteine containing peptides are susceptible to (air) oxidation during synthesis and handling, these peptides were synthesized with an alanine instead of a cysteine.

HLA-A3.2 = biological target: T2, HLA-A3.2 (Homo sapiens, UniProt P04439); type: binding
T2 construct: endogenous in cells; host or cells: EBV transformed cell line GM3107 (protein purified from NP40 lysate)
Source text: as §1, §2, §3, §4

[1] = HPV16 peptides, 200 μg/ml peptide, 16 hours, 174CEM.T2 cells
[2] = HPV16 peptides, 200 μg/ml peptide, 16 hours, 174CEM.T2 cells, background set on 0, binding positive when ≧0.5
[3] = HLA-A3.2, IC50 of standard divided by IC50 of tested peptide, cysteines synthesized as alanine
[4] = HPV18 peptides, 200 μg/ml peptide, 16 hours, 174CEM.T2 cells
[5] = HPV18 peptides, 200 μg/ml peptide, 16 hours, 174CEM.T2 cells, background set on 0, binding positive when ≧0.5

T2 sequence (P04439 25-365): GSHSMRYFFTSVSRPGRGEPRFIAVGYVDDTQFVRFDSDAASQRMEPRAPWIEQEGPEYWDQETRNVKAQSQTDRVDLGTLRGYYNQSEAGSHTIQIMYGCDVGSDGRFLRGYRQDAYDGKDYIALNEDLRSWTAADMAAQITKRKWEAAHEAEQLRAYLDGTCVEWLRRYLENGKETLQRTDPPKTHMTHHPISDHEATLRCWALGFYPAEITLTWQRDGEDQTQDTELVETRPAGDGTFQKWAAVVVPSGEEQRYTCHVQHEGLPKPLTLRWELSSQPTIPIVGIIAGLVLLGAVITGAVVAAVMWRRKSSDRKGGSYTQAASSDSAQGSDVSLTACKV
T2 sequence (P61769 21-119, further chain): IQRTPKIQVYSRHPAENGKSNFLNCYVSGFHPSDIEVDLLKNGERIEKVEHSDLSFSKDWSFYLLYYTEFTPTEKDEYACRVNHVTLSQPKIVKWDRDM

CC[C@H](C)[C@H](NC(=O)CNC(=O)[C@H](CC(C)C)NC(=O)[C@@H](N)[C@@H](C)O)C(=O)N[C@H](C(=O)N[C@@H](CS)C(=O)N1CCC[C@H]1C(=O)N[C@H](C(=O)N[C@@H](CS)C(=O)O)[C@@H](C)CC)C(C)C [HPV16 peptide 18]
MF (mean HLA-A2.1 fluorescence) (HLA-A2.1; [1]): 227.8
FI (Fluorescence Index) (HLA-A2.1; [2]): 2.5

AMFQDPQER [residues 7-15 of HPV16 protein E6]
binding ratio to standard (HLA-A11.2): 0.8400

AVCDKCLKF [residues 68-76 of HPV16 protein E6]
binding ratio to standard (HLA-A11.2): 0.0037
binding ratio to standard (HLA-A3.2; [3]): 0.0056

AVDLYHFLK [reference compound]
IC50 (HLA-A11.2; read-out: 50% inhibition dose for the probe, unlabeled probe peptide): 9 nM

CCKCDSTLR [residues 58-66 of HPV16 protein E7]
binding ratio to standard (HLA-A11.2): 0.0110
binding ratio to standard (HLA-A3.2; [3]): 0.0016

CCRSSRTRR [residues 146-154 of HPV16 protein E6]
binding ratio to standard (HLA-A3.2; [3]): 0.0020

CMSCCRSSR [residues 143-151 of HPV16 protein E6]
binding ratio to standard (HLA-A11.2): 0.0084
binding ratio to standard (HLA-A3.2; [3]): 0.1800

DTLEKLTNT [HPV18 peptide 8, residues 88-96 of HPV18 protein E6]
MF (mean HLA-A2.1 fluorescence) (HLA-A2.1; [4]): 238.2
FI (Fluorescence Index) (HLA-A2.1; [5]): 0.7

EITCVYCKT [HPV18 peptide 4, residues 29-37 of HPV18 protein E6]
MF (mean HLA-A2.1 fluorescence) (HLA-A2.1; [4]): 206.0
FI (Fluorescence Index) (HLA-A2.1; [5]): 0.5

ELQTTIHDI [HPV16 peptide 4, residues 25-33 of HPV16 protein E6]
MF (mean HLA-A2.1 fluorescence) (HLA-A2.1; [1]): 108.0
FI (Fluorescence Index) (HLA-A2.1; [2]): 0.6

ELTEVFEFA [HPV18 peptide 6]
FI (Fluorescence Index) (HLA-A2.1): 1.1
MF (mean HLA-A2.1 fluorescence) (HLA-A2.1): 289.0

FAFKDLFVV [HPV18 peptide 7, residues 47-55 of HPV18 protein E6]
MF (mean HLA-A2.1 fluorescence) (HLA-A2.1; [4]): 462.9
FI (Fluorescence Index) (HLA-A2.1; [5]): 2.3

FQQLFLNTL [HPV18 peptide 11, residues 86-94 of HPV18 protein E7]
MF (mean HLA-A2.1 fluorescence) (HLA-A2.1; [4]): 244.5
FI (Fluorescence Index) (HLA-A2.1; [5]): 0.8

GTLGIVCPI [HPV16 peptide 17, residues 85-93 of HPV16 protein E7]
MF (mean HLA-A2.1 fluorescence) (HLA-A2.1; [1]): 216.1
FI (Fluorescence Index) (HLA-A2.1; [2]): 2.3

HLDKKQRFH [residues 125-133 of HPV16 protein E6]
binding ratio to standard (HLA-A3.2; [3]): 0.4400

HYNIVTFCC [residues 51-59 of HPV16 protein E7]
binding ratio to standard (HLA-A11.2): 0.0010
binding ratio to standard (HLA-A3.2; [3]): 0.0260

IHDIILECV [HPV16 peptide 7, residues 30-38 of HPV16 protein E6]
MF (mean HLA-A2.1 fluorescence) (HLA-A2.1; [1]): 150.7
FI (Fluorescence Index) (HLA-A2.1; [2]): 1.3

IILECVYCK [residues 33-41 of HPV16 protein E6]
binding ratio to standard (HLA-A11.2): 6.7000
binding ratio to standard (HLA-A3.2; [3]): 1.5000

ISEYRHYCY [residues 80-88 of HPV16 protein E6]
binding ratio to standard (HLA-A11.2): 0.4300
binding ratio to standard (HLA-A3.2; [3]): 0.0064

KCDSTLRLC [residues 60-68 of HPV16 protein E7]
binding ratio to standard (HLA-A3.2; [3]): 0.0012

KFYSKISEY [residues 75-83 of HPV16 protein E6]
binding ratio to standard (HLA-A3.2): 0.0100

KLPDLCTEL [HPV18 peptide 1, residues 13-21 of HPV18 protein E6]
MF (mean HLA-A2.1 fluorescence) (HLA-A2.1; [4]): 439.3
FI (Fluorescence Index) (HLA-A2.1; [5]): 2.1

KTVLELTEV [HPV18 peptide 5, residues 36-44 of HPV18 protein E6]
MF (mean HLA-A2.1 fluorescence) (HLA-A2.1; [4]): 467.5
FI (Fluorescence Index) (HLA-A2.1; [5]): 2.3

LCTELQTTI [HPV16 peptide 3, residues 22-30 of HPV16 protein E6]
MF (mean HLA-A2.1 fluorescence) (HLA-A2.1; [1]): 113.6
FI (Fluorescence Index) (HLA-A2.1; [2]): 0.7

LFLNTLSFV [HPV18 peptide 13, residues 89-97 of HPV18 protein E7]
MF (mean HLA-A2.1 fluorescence) (HLA-A2.1; [4]): 360.3
FI (Fluorescence Index) (HLA-A2.1; [5]): 1.6

LLMGTLGIV [HPV16 peptide 16]
FI (Fluorescence Index) (HLA-A2.1): 0.8
MF (mean HLA-A2.1 fluorescence) (HLA-A2.1): 118.8

LSFVCPWCA [HPV18 peptide 14, residues 94-102 of HPV18 protein E7]
MF (mean HLA-A2.1 fluorescence) (HLA-A2.1; [4]): 262.0
FI (Fluorescence Index) (HLA-A2.1; [5]): 0.9

LTNTGLYNL [HPV18 peptide 9, residues 93-101 of HPV18 protein E6]
MF (mean HLA-A2.1 fluorescence) (HLA-A2.1; [4]): 352.5
FI (Fluorescence Index) (HLA-A2.1; [5]): 1.5

PLCDLLIRC [HPV16 peptide 10, residues 102-110 of HPV16 protein E6]
MF (mean HLA-A2.1 fluorescence) (HLA-A2.1; [1]): 204.8
FI (Fluorescence Index) (HLA-A2.1; [2]): 2.1

QLCTELQTT [HPV16 peptide 2, residues 21-29 of HPV16 protein E6]
MF (mean HLA-A2.1 fluorescence) (HLA-A2.1; [1]): 211.9
FI (Fluorescence Index) (HLA-A2.1; [2]): 2.2

QLFLNTLSF [HPV18 peptide 12, residues 88-96 of HPV18 protein E7]
MF (mean HLA-A2.1 fluorescence) (HLA-A2.1; [4]): 258.2
FI (Fluorescence Index) (HLA-A2.1; [5]): 0.8

QQYNKPLCD [residues 97-105 of HPV16 protein E6]
binding ratio to standard (HLA-A3.2; [3]): 0.0045

RHYCYSLYG [residues 84-92 of HPV16 protein E6]
binding ratio to standard (HLA-A3.2; [3]): 0.0036

RLCVQSTHV [HPV16 peptide 14, residues 66-74 of HPV16 protein E7]
MF (mean HLA-A2.1 fluorescence) (HLA-A2.1; [1]): 250.0
FI (Fluorescence Index) (HLA-A2.1; [2]): 2.8

SLQDIEITC [HPV18 peptide 2, residues 24-32 of HPV18 protein E6]
MF (mean HLA-A2.1 fluorescence) (HLA-A2.1; [4]): 243.9
FI (Fluorescence Index) (HLA-A2.1; [5]): 0.7

SLYGTTLEQ [residues 89-97 of HPV16 protein E6]
binding ratio to standard (HLA-A3.2; [3]): 0.0080

TGRCMSCCR [residues 140-148 of HPV16 protein E6]
binding ratio to standard (HLA-A11.2): 0.0012

TIHDIILEC [HPV16 peptide 6, residues 29-37 of HPV16 protein E6]
MF (mean HLA-A2.1 fluorescence) (HLA-A2.1; [1]): 184.5
FI (Fluorescence Index) (HLA-A2.1; [2]): 1.8

TLEDLLMGT [HPV16 peptide 15, residues 78-86 of HPV16 protein E7]
MF (mean HLA-A2.1 fluorescence) (HLA-A2.1; [1]): 182.8
FI (Fluorescence Index) (HLA-A2.1; [2]): 1.8

TLQDIVLHL [HPV18 peptide 10]
FI (Fluorescence Index) (HLA-A2.1): 2.7
MF (mean HLA-A2.1 fluorescence) (HLA-A2.1): 519.6

TTLEQQYNK [residues 93-101 of HPV16 protein E6]
binding ratio to standard (HLA-A3.2; [3]): 0.0780

VCPICSQKP [residues 90-98 of HPV16 protein E7]
binding ratio to standard (HLA-A11.2): 0.0012

YMLDLQPET [HPV16 peptide 12, residues 11-19 of HPV16 protein E7]
MF (mean HLA-A2.1 fluorescence) (HLA-A2.1; [1]): 283.9
FI (Fluorescence Index) (HLA-A2.1; [2]): 3.3
